Experimental data from article PMC5387054, “Zinc-Dependent Transcriptional Regulation in Paracoccus denitrificans”.

T1: Zur (Paracoccus denitrificans) (UniProt A1B9K9)
T1 sequence: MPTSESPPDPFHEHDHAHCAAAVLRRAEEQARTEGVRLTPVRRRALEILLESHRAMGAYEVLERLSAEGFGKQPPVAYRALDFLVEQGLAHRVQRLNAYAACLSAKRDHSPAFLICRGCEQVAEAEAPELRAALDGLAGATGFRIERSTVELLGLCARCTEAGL

T2: Zur (Paracoccus denitrificans, UniProt A1B9K9 1-164)
T2 sequence: T1 sequence

B1: specific competitor (zur/znuA), 59 bp (dsDNA)
DNA 1: GGGCATGATGTTATATCGTTACATTTTTGCTTGACGGGTTACGATATAACATAAATAAC
DNA 2: GTTATTTATGTTATATCGTAACCCGTCAAGCAAAAATGTAACGATATAACATCATGCCC

Assays:
[1] = target: Paracoccus denitrificans zinc uptake regulator (Zur) (Paracoccus denitrificans PD1222); test: SEC; Factor Xa cleavage reaction mixture applied to a Hi-Prep Sephacryl S-100 HR column, 20 mM Tris pH 8.0, 150 mM NaCl, calibrated with proteins of 6.5 to 75 kDa
[2] = target: T1, Zur (Paracoccus denitrificans); test: EMSA; conditions: EMSA: 10 mM Tris pH 8.0, 10 mM NaCl, 100 mM K-glutamate, 50 mM KCl, 1 mM DTT, 1.07 ug/ml BSA, 0.1 uM DNA, 0-20 uM Zur, 25 uM ZnCl2, 100 uM EDTA; 30 min room …
Zur = target: T2, Zur; test: competition; probe zur/znuA 0.1 uM; 10 uM Zur, 25 uM Zn2+, 100 uM EDTA; 5 uM competitor; shift disrupted, not fully displaced; EMSA: 10 mM Tris pH 8.0, 10 mM NaCl, 100 mM K-glutamate, 50 mM KCl, 1 mM DTT, 1.07 ug/ml BSA, 0.1 uM DNA, 0-20 uM Zur, 25 uM ZnCl2, 100 uM EDTA; 30 min room temperature; 8% native PAGE at 4 C; conditions: protein: recombinant; tags: MBP (pMAL-c5X) removed by Factor Xa; chain copies: 2; blunt

Molecule | binding [2] | also measured
Paracoccus denitrificans zinc uptake regulator (Zur) (natural protein) |  | stoichiometry N [1]: 2
GCCGCCCGCTGACCAGATTTCCGCCGGGACCAGCCTGCGCCCGTCCCGGCGCCCTCCCCCGAACCCCATCAAGGAGACTTTCCATGCTCAGACATCTCGCGGGCGCCAGCGCCCTTGCCCTGACCTT (double strand) [aztD promoter (negative control, 128 bp)] | binds more weakly | 
AAGAGAGGGTTGAGCCTGCCCGGTAAAGGGCCGGGCGGGATGATCCGCCAGGCGCATGGGCGAAGCCCTCTTGCATCCCCGGGTGGGTAATATAATAACATAACAAAATCTCCGAGGATAACGCTCATGCTCTGCAAACTGCTCGCTT (double strand) [pden1341 promoter] | binds | 
AATCACAAAACCGGCGCCTCGGCATTTCCCCGCTGATGCTTTGCCCTCTCGCCGCGGGTCCTGCGGCTTTTCGGACGACCGGCGCGGCATGGCTTGCCGTTCCGGTTTAGTAATGTAATAACATCACCAAAATATCGAGTCCGCTATCCAGTGATGCCCAGAACC (double strand) [aztA promoter] | binds | 
CGGCAAGGACAAGGGAAGAAGGTCGGATCATGGCGAGACTCACTTGCGGAAACGCCAAGGTTATTTATGTTATATCGTAACCCGTCAAGCAAAAATGTAACGATATAACATCATGCCCACTTCGGAATCCCCGCCTGACCCGTTTCACG (double strand) [zur/znuA promoter (149 bp)] | binds | 
B1 |  | binding result (Zur): binds
